# Article PMC5779702, “The glutamine synthetase of Trypanosoma cruzi is required for its resistance to ammonium accumulation and evasion of the parasitophorous vacuole during host-cell infection” (PLoS Neglected Tropical Diseases, 2018)
# How the values were obtained:
# [1] = tested on: Nc1ncnc2c1ncn2[C@@H]1O[C@H](COP(=O)(O)OP(=O)(O)OP(=O)(O)O)[C@@H](O)[C@H]1O; assay: purified protein; conditions: Mg2+
# N[C@@H](CCC(=O)O)C(=O)O = assay: purified protein; conditions: Mg2+
# [2] = target: T1, glutamine synthetase (TcGS) (Trypanosoma cruzi, UniProt Q4CN04); assay: enzyme inhibition kinetics of purified recombinant TcGS; format: biochemical
# T1 construct: gene Tc00.1047053503405.10; recombinant His6-tagged TcGS (TcCLB.503405.10 starting at base pair 123), expressed in E. coli
# [3] = target: recombinant Trypanosoma cruzi glutamine synthetase (TcGS), His6-tagged (Trypanosoma cruzi); assay: SEC; analytical size-exclusion chromatography of recombinant TcGS (elutions of the Ni-NTA column); mass estimated from a calibration of the column; TcGS followed in the fractions by Bradford, dot-blot, ELISA and GS activity
molecule,measurement,setting,value
glutamine synthetase (TcGS) (Trypanosoma cruzi strain CL Brener),Km,[1],0.38 ± 0.10 mM
same,kcat,[1],396 ± 18.2 s⁻¹
same,kcat/Km,[1],1.05e+06 M⁻¹ s⁻¹
same,Km,N[C@@H](CCC(=O)O)C(=O)O,0.44 ± 0.06 mM
same,kcat,N[C@@H](CCC(=O)O)C(=O)O,392 ± 9.5 s⁻¹
same,kcat/Km,N[C@@H](CCC(=O)O)C(=O)O,890000 M⁻¹ s⁻¹
"CS(=N)(=O)CCC(N)C(=O)O (centres unmarked) [MS, Methionine sulfoximine]",Ki,[2],3.89 ± 0.04 µM
"recombinant Trypanosoma cruzi glutamine synthetase (TcGS), His6-tagged (enzyme)",stoichiometry N,[3],8
